Test results: patent US20250250335A1 (SHENGHE CHINA BIOPHARMACEUTICAL, published 2025)

T1: human CEACAM5-his (ACRO CE5-H5226) (human, UniProt P06731 35-685)
T1 construct: Bought protein; not shown: His tag
T1 sequence (looked up): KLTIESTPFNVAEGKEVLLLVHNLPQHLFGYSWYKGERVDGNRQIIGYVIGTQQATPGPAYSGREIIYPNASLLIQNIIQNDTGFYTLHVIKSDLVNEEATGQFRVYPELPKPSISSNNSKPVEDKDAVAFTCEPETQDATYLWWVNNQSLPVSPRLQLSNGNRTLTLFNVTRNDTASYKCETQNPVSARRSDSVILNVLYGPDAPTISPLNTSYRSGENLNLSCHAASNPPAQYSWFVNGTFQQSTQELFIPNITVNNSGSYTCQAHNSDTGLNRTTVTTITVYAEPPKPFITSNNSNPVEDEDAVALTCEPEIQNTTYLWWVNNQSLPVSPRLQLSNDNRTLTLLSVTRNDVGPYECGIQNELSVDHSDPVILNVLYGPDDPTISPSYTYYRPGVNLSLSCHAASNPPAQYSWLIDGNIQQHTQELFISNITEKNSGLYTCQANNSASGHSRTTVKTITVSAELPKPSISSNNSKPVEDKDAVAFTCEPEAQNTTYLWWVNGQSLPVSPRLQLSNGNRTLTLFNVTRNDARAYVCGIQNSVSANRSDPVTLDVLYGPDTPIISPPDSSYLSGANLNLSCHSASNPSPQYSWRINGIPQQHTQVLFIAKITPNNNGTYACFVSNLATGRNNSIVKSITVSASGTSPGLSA

T2: human CEACAM6-his (ACRO CE6-H5223) (human, UniProt P40199 35-320)
T2 construct: Bought protein; not shown: His tag
T2 sequence (looked up): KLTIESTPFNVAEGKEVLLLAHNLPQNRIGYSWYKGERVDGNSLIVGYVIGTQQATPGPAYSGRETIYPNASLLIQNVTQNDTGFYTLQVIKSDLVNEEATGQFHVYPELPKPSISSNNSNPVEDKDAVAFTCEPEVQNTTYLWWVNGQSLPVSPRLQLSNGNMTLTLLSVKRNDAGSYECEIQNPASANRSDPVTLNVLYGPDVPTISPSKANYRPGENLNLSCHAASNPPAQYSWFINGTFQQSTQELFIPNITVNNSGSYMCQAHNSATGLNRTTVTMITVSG

T3: mouse CEACAM5 (mouse, UniProt Q3UKK2 35-947, limits assumed)
T3 sequence (looked up): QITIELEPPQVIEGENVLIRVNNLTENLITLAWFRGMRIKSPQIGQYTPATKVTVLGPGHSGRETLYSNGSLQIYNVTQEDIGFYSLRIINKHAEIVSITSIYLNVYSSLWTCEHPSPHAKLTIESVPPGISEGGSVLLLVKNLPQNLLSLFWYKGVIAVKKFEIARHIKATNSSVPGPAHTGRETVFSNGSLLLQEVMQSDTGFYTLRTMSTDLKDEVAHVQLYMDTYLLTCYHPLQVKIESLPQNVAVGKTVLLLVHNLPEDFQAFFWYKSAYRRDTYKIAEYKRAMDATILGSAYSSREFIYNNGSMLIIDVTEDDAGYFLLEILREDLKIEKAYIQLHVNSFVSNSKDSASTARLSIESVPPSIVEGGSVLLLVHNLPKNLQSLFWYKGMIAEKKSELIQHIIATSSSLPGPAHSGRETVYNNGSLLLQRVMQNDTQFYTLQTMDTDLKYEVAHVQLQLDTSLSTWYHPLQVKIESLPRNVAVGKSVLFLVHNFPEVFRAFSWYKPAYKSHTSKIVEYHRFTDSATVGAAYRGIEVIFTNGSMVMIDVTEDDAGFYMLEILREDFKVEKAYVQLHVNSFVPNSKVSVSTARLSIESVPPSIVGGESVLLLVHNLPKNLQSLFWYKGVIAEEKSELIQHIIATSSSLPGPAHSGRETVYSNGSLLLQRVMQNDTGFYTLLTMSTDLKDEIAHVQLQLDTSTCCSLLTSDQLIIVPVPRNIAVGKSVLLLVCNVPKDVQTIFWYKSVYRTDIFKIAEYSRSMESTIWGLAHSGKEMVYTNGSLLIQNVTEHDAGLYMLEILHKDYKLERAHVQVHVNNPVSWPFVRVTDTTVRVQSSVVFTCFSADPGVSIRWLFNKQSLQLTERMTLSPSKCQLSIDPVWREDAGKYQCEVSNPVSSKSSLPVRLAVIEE


Experiments:
[1] = target: T1, human CEACAM5-his (ACRO CE5-H5226); assay: SPR (Biacore), antibody captured on CM5 chip, antigen as analyte, 1:1 model
Method: (§1) The CM5 sensor chip was activated at a flow rate of 10 μL/min for 420 seconds. The channel was then injected with 30 μg/mL of anti-rat Fc IgG in 10 mM NaAc (pH 4.5) at a flow rate of 10 μL/min. The chip was inactivated with 1 M ethanolamine-hydrochloric acid (GE) for 420 seconds at a flow rate of 10 μL/min.
(§2) Candidate antibodies in running buffer 1×HBS-EP+ (10 mM HEPES, 150 mM NaCl, 3 mM EDTA, 0.05% Tween 20, pH 7.4) were captured onto Fc2 with anti-rat Fc IgG at a flow rate of 10 μL/min. The 10 nM human CEACAM5-his protein or CEACAM-6-his or CEACAM6 (AB)-his protein and running buffer were sequentially injected into Fc1-Fc2 at a flow rate of […], bound for 180 seconds, and then dissociated for 3600 seconds. 10 mM glycine (pH 1.5) was injected as regeneration buffer after each dissociation.
(§3) Result plots for the reference channel Fc1 and the buffer channel were subtracted from the test result plots. The experimental data fit the 1:1 binding model. The molecular weight of 110 KDa was used to calculate the molar concentration of CEACAM5 protein, 55 KDa for human CEACAM6-his, and 55 KDa for human CEACAM6 (AB)-his.

[2] = target: T2, human CEACAM6-his (ACRO CE6-H5223); assay: as above
Method: as §1, §2, §3

[3] = target: T4, Human-CEACAM6 (AB)-His (human, UniProt P40199 145-314); assay: as above
T4 construct: Made in house, purified on a nickel column
T4 sequence (P40199 other isoform, or with tags, fused parts or gaps limits assumed): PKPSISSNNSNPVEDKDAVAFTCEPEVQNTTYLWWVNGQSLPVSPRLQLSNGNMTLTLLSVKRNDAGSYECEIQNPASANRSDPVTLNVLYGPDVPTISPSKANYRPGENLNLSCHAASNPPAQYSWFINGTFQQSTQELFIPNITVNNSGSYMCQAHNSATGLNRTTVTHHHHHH
Method: as §1, §2, §3

[4] = target: T4, Human-CEACAM6 (AB)-His; assay: ELISA on coated human CEACAM6 (AB), OD450
Method: (§4) The binding activity of the antibodies to human CEACAM5, human CEACAM6, and human CEACAM6 (AB) proteins was detected by ELISA. The plate coated with proteins was incubated at 4° C. overnight, and the 96-well ELISA plate blocked with 2% PBS-BSA was added with the antibody to be detected and incubated at 37° C. for 1 h. After washing 3 times with PBS containing 0.05% Tween, the absorbance value of each well was read at wavelength 450 nm with the gradient-diluted mouse-derived candidate antibody as the primary antibody and anti-mouse-IgG-FC-HRP as the secondary antibody, and the absorbance value of each well was read at wavelength 450 nm after the TMB color development.

[5] = target: T1, human CEACAM5-his (ACRO CE5-H5226); assay: ELISA on coated human CEACAM5, OD450
Method: as §4

[6] = target: T3, mouse CEACAM5; assay: ELISA on coated protein, OD450
Method: The affinity of the antibodies to monkey CEACAM5, monkey CEACAM6, and mouse CEACAM5 proteins was determined by ELISA. The plates encapsulated with […] proteins were incubated at 4° C. overnight, and the antibodies to be detected were added to 96-well ELISA plates after being blocked with 2% PBS-BSA and incubated at 37° C. for 1 h. After washing 3 times with PBS containing 0.05% Tween, the absorbance value of each well was read at wavelength 450 nm with the antibody to be detected as the primary antibody and Goat anti-mouse IgG-FC-HRP as the secondary antibody, and the absorbance value of each well was read at wavelength 450 nm after the TMB color development. The specific binding to CEACAM5 and CEACAM6 of mouse and monkey was detected by Elisa method.

Kd [1] [nM]	Kd [2] [nM]	Kd [3] [nM]	EC50 (read off the curve) [4] [µg/mL]	EC50 (read off the curve) [5] [µg/mL]	OD [6] [OD]	Binder
1.36	37.4	4.51	~0.02	~0.03	0.15	Antibody 13 (antibody, V domains shown, Mouse-derived hybridoma antibody; also called mouse-derived antibody 13) VH: EVKLVESGGGLVQPGGSLSLSCTASGFTLTDYYMSWVRQPPGRALEWLALIRNKVNGYTIEYSASVKGRFTISRDNSQSILYLQMNALRAEDSATYYCARDIGIRWYFDVWGAGTTVTVSS VL: QIVLSQSPAILSASPGEKVTMTCRASSSVSYMHWYQQKPGSSPKPWIYATSNLASGVPARFSGSGSGTSYSLTISRMEAEDAATYYCQQWSGNPPTFGGGTKLEIK
7.64	3.83	< 0.001				Antibody 15 (antibody, V domains shown, Mouse-derived hybridoma antibody; also called mouse-derived antibody 15) VH: QVQLQQPGAELVKPGASVTLSCKASGYTFTSYWINWVKQRPGQGLEWIGNIYPYTSSSNYNEKFKGKATLTVDTSSNTAYMQLSGLTSDDSAVYFCARKGNIYYSYESYPLDFWGQGTSVTVSS VL: DIQMTQSSSSFSVSLGDRVTITCKASEDIYKQIGWYQQKPGNAPRLLIAGATSLETGVPSRFSGSGSGKDYMLNITSLQTEDVGSYYCQQYWSPPFTFGSGTKLEIK
